T1: Cascade (Type I-E crRNA-guided surveillance complex, crRNA-loaded) (Escherichia coli K12 (expressed in …, UniProt Q46901;P76632;Q46899;Q46898;Q46897 1-502;1-160;2-363;1-224;2-199))
T1 sequence 1: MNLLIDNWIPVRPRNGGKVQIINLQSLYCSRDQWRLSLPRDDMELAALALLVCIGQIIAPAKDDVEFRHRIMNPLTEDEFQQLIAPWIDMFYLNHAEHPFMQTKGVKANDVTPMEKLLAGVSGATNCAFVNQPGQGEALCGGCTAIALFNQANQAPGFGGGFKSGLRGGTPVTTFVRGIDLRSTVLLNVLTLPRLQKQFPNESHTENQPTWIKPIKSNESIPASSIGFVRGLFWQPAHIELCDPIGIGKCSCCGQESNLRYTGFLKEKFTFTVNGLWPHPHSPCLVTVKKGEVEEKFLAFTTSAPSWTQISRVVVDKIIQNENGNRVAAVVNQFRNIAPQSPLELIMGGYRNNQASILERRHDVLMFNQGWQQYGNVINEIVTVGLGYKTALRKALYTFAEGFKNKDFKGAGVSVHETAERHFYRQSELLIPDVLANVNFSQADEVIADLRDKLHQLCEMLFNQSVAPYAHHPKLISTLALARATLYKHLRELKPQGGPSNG
T1 sequence 2: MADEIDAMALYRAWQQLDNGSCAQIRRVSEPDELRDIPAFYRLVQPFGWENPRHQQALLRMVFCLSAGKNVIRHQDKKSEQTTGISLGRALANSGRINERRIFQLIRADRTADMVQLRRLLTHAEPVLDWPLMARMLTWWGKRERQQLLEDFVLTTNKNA
T1 sequence 3: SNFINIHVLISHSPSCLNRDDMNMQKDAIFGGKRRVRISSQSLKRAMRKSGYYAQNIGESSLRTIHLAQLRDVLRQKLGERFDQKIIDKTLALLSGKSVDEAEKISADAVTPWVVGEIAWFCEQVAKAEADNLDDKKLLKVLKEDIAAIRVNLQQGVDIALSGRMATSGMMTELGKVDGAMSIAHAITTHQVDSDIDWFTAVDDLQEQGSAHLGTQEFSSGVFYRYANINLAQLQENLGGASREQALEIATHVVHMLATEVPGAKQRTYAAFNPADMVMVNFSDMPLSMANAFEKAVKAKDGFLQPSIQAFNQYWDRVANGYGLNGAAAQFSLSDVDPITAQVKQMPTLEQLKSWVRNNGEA
T1 sequence 4: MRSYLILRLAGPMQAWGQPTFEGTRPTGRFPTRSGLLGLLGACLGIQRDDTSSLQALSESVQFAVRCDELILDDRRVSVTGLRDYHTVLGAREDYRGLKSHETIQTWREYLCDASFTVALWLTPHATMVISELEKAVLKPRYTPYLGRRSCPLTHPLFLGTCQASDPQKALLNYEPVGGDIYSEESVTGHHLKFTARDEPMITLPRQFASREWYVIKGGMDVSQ
T1 sequence 5: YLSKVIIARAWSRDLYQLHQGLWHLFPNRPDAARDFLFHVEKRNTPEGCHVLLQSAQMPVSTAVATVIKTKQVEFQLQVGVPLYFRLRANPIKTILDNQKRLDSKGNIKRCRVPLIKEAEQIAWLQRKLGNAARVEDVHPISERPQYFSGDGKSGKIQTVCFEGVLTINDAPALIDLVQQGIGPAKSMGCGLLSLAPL


Columns and labels:
[1] = biological target: T1, Cascade (Type I-E crRNA-guided …); test: EMSA; g8C-2A crRNA; slightly reduced affinity; EMSA with 32P-labelled dsDNA; buffer, salt, pH and temperature not stated (as in ref 29); Kd from fraction bound = [Cascade]/(Kd+[Cascade]); details: protein: recombinant; copies: 1;2;6;1;1; label: 5'-32P on DNA; guide / target / displaced; DNA blunt duplex
[2] = biological target: T1, Cascade (Type I-E crRNA-guided …); test: EMSA; g8G-1T crRNA; EMSA with 32P-labelled dsDNA; buffer, salt, pH and temperature not stated (as in ref 29); Kd from fraction bound = [Cascade]/(Kd+[Cascade]); details: protein: recombinant; copies: 1;2;6;1;1; label: 5'-32P on DNA; guide / target / displaced; DNA blunt duplex
[3] = biological target: T1, Cascade (Type I-E crRNA-guided …); test: EMSA; WT crRNA; EMSA with 32P-labelled dsDNA; buffer, salt, pH and temperature not stated (as in ref 29); Kd from fraction bound = [Cascade]/(Kd+[Cascade]); details: protein: recombinant, copies: 1;2;6;1;1, label: 5'-32P on DNA, DNA blunt duplex

| Binder | binding result [2] | binding result ([3]; guide / target / displaced) | also measured |
| --- | --- | --- | --- |
| g8C-2A crRNA + CTT PAM probe (mixed) RNA: AUAAACAGCUGUCUUUCGCUGCUGAGGGUGACGAUCCCGCGAGUUCCCCGCGCCAGCGGGG DNA 1: TTAAAGGCCGCTTTTGCGGGATCGTCACCCTCAGCAGCGAAAGACAGCTTCGGAACGAGGGTAGC DNA 2: GCTACCCTCGTTCCGAAGCTGTCTTTCGCTGCTGAGGGTGACGATCCCGCAAAAGCGGCCTTTAA | – | – | Kd [1]: 60 ± 12 nM |
| g8G-1T crRNA + CTC PAM probe (mixed) RNA: AUAAACCUCUGUCUUUCGCUGCUGAGGGUGACGAUCCCGCGAGUUCCCCGCGCCAGCGGGG DNA 1: TTAAAGGCCGCTTTTGCGGGATCGTCACCCTCAGCAGCGAAAGACAGCTCCGGAACGAGGGTAGC DNA 2: GCTACCCTCGTTCCGGAGCTGTCTTTCGCTGCTGAGGGTGACGATCCCGCAAAAGCGGCCTTTAA | binds | – | – |
| g8G-1T crRNA + CCT PAM probe (mixed) RNA: AUAAACCUCUGUCUUUCGCUGCUGAGGGUGACGAUCCCGCGAGUUCCCCGCGCCAGCGGGG DNA 1: TTAAAGGCCGCTTTTGCGGGATCGTCACCCTCAGCAGCGAAAGACAGCCTCGGAACGAGGGTAGC DNA 2: GCTACCCTCGTTCCGAGGCTGTCTTTCGCTGCTGAGGGTGACGATCCCGCAAAAGCGGCCTTTAA | binds | – | – |
| WT g8 crRNA + CTC PAM (GAG) M13 probe (mixed) RNA: AUAAACCGCUGUCUUUCGCUGCUGAGGGUGACGAUCCCGCGAGUUCCCCGCGCCAGCGGGG DNA 1: TTAAAGGCCGCTTTTGCGGGATCGTCACCCTCAGCAGCGAAAGACAGCTCCGGAACGAGGGTAGC DNA 2: GCTACCCTCGTTCCGGAGCTGTCTTTCGCTGCTGAGGGTGACGATCCCGCAAAAGCGGCCTTTAA | – | binds | – |
| WT g8 crRNA + CAT PAM (ATG) M13 probe (mixed) RNA: AUAAACCGCUGUCUUUCGCUGCUGAGGGUGACGAUCCCGCGAGUUCCCCGCGCCAGCGGGG DNA 1: TTAAAGGCCGCTTTTGCGGGATCGTCACCCTCAGCAGCGAAAGACAGCATCGGAACGAGGGTAGC DNA 2: GCTACCCTCGTTCCGATGCTGTCTTTCGCTGCTGAGGGTGACGATCCCGCAAAAGCGGCCTTTAA | – | – | binding result ([3]; guide RNA / target strand / displaced strand): binds |
| g8G-1T crRNA + CAT PAM probe (mixed) RNA: AUAAACCUCUGUCUUUCGCUGCUGAGGGUGACGAUCCCGCGAGUUCCCCGCGCCAGCGGGG DNA 1: TTAAAGGCCGCTTTTGCGGGATCGTCACCCTCAGCAGCGAAAGACAGCATCGGAACGAGGGTAGC DNA 2: GCTACCCTCGTTCCGATGCTGTCTTTCGCTGCTGAGGGTGACGATCCCGCAAAAGCGGCCTTTAA | binds | – | – |
| WT g8 crRNA + CTT PAM (AAG) M13 probe (mixed) RNA: AUAAACCGCUGUCUUUCGCUGCUGAGGGUGACGAUCCCGCGAGUUCCCCGCGCCAGCGGGG DNA 1: TTAAAGGCCGCTTTTGCGGGATCGTCACCCTCAGCAGCGAAAGACAGCTTCGGAACGAGGGTAGC DNA 2: GCTACCCTCGTTCCGAAGCTGTCTTTCGCTGCTGAGGGTGACGATCCCGCAAAAGCGGCCTTTAA | – | binds | – |
| WT g8 crRNA + CCT PAM (AGG) M13 probe (mixed) RNA: AUAAACCGCUGUCUUUCGCUGCUGAGGGUGACGAUCCCGCGAGUUCCCCGCGCCAGCGGGG DNA 1: TTAAAGGCCGCTTTTGCGGGATCGTCACCCTCAGCAGCGAAAGACAGCCTCGGAACGAGGGTAGC DNA 2: GCTACCCTCGTTCCGAGGCTGTCTTTCGCTGCTGAGGGTGACGATCCCGCAAAAGCGGCCTTTAA | – | binds | – |
| g8G-1T crRNA + CTT PAM probe (mixed) RNA: AUAAACCUCUGUCUUUCGCUGCUGAGGGUGACGAUCCCGCGAGUUCCCCGCGCCAGCGGGG DNA 1: TTAAAGGCCGCTTTTGCGGGATCGTCACCCTCAGCAGCGAAAGACAGCTTCGGAACGAGGGTAGC DNA 2: GCTACCCTCGTTCCGAAGCTGTCTTTCGCTGCTGAGGGTGACGATCCCGCAAAAGCGGCCTTTAA | binds | – | – |
